Experimental data: paper PMC3312341 (Journal of Molecular Biology, 2012)

Key:
SEC = molecular target: the molecule itself; test: SEC
[1] = molecular target: T1, biotinylated human erythrocyte β-spectrin repeats 12–17 (human, UniProt P11277 1486-2083, biotin (biotinylated; site not stated)); test: SPR
T1 sequence (looked up): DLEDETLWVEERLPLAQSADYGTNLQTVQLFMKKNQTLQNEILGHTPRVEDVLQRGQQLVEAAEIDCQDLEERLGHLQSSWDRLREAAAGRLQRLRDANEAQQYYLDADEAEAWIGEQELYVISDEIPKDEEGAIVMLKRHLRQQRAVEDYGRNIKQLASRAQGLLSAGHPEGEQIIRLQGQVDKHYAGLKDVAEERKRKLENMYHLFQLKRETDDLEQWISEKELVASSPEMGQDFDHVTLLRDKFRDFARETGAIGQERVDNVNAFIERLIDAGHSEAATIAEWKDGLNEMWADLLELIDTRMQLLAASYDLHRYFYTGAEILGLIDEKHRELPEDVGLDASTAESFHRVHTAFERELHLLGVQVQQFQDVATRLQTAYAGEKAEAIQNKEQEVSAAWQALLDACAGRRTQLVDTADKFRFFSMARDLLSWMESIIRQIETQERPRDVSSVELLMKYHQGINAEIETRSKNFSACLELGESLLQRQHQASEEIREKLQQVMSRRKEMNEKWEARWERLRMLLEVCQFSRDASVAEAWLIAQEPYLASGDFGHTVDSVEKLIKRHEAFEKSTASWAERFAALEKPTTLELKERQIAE

B1: Ankyrin-R Death domain (DD), residues 1394–1497 (domain or fragment, human, UniProt P16157 1394-1497, looked up)
chain: PGSLSGTEQAEMKMAVISEHLGLSWAELARELQFSVEDINRIRVENPNSLLEQSVALLNLWVIREGQNANMENLYTALQSIDRGEIVNMLEGSGRQSRNLKPDR
- stoichiometry N (SEC): 2

B2: ZU5A-ZU5B fragment of human erythrocyte ankyrin (ankyrin-R), residues 911–1233 (domain or fragment, UniProt P16157 911-1233, looked up)
chain: TGFLVSFMVDARGGSMRGSRHNGLRVVIPPRTCAAPTRITCRLVKPQKLSTPPPLAEEEGLASRIIALGPTGAQFLSPVIVEIPHFASHGRGDRELVVLRSENGSVWKEHRSRYGESYLDQILNGMDEELGSLEELEKKRVCRIITTDFPLYFVIMSRLCQDYDTIGPEGGSLKSKLVPLVQATFPENAVTKRVKLALQAQPVPDELVTKLLGNQATFSPIVTVEPRRRKFHRPIGLRIPLPPSWTDNPRDSGEGDTTSLRLLCSVIGGTDQAQWEDITGTTKLVYANECANFTTNVSARFWLSDCPRTAEAVNFATLLYKEL
- Kd [1]: 8.3 nM
